# Data from the RNAGym collection of RNA variant scans (doi:10.1073/pnas.2313332121).
# B1: TPR t1 (parent)
# chain: GACCAAUCUGCCCUCAGAGCUCGAGAACAUCUUCGGAUGCAGAGGAGGCAGGCUUCGGUGGCGCGAUAGCGCCAACGUCCUCAACCUCCAAUGCAUCCCACCACAUGAUGAUGCCUGAAGAGCCUUGGUUUUUUG
# Variants of: B1
# Assay: polymerase ribozyme fitness, log enrichment relative to wild type (log ratio); higher = more active; in vitro selection for triplet polymerase activity
# Outline: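 Frozen incubation at −7 °C formed the core of a single, triplicate in vitro selection round applied to PCR-built, transcribed mutant libraries of each subunit of a heterodimeric triplet polymerase ribozyme. Extended constructs were gel-excised, captured with streptavidin beads and amplified by RT-PCR, and input and output libraries were Illumina-sequenced with a filter of ≥10 input reads and ≥1 read per output. Fitness is the logarithm of genotype enrichment relative to wild-type enrichment, with inverse-variance-weighted replicate averaging, and the logarithm is base 2.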
row,Variant,polymerase ribozyme fitness (log ratio)
1,C11G G42U,-0.866
2,C11U A43U G61U G63C C72G C88A C89U A111U,-6.46
3,C11A G69A C82U,-3.91
4,C11G G36A C70A,-1.16
5,C11G A16U A24G G47C G63U A111C,-7.31
6,C11U A26U C88A,-4.34
7,C11G C40A C99U,-4.65
8,C11G C70U G122U,-0.676
9,C11G G122A C124G,1.83
10,C11U A41U G52U U125A,-3.07
11,C11G C114U C124G,-2.07
12,C11G C40U C53U A68G U87A A90U U112A G127C,-6.81
13,C11U A43U A84U U112A G128C,-3.29
14,C11U A27U C62U C88G C97G C98U C99U C114G C124A G128A,-7.25
15,C11G G39A G120C G127C,0.971
16,C11G G69A,-2.73
17,C11G C94U C104G G113A,-5.51
18,C11G U129C,-0.495
19,C11G G36A G127A,-2.95
20,C11G G113U G128U,-3.42
21,C11G A95C C114G G120A,-6.61
22,C11A G107U G122A,-3.88
23,C11G G44A U125G,-0.96
24,C11G U32A G48U C64A C73U U96A C123A,-7.31

row,Variant,polymerase ribozyme fitness (log ratio)
1,C11A U33G U54A C70U A95C U112A,-6.99
2,C11G G93C A105U A119U,-3.55
3,C11G C15G G36U A74C G117C,0.809
4,C11U A24G G45U A91G,-5.06
5,C11G C20G A24G U116C,-6.56
6,C11A G61U C102U,-3.03
7,C11G C88A,-0.146
8,C11G C15A A29U G45C G77A G120A G128U,-5.34
9,C11A G122U,0.0729
10,C11G G19C G60A C123A U129C,-2.66
11,C11G A37G C40G C72A C101U C123A,0.0924
12,C11G C13U A37U A83C,-0.361
13,C11G G25U,-4.49
14,C11G G25A,-4.53
15,C11G A27U C49A G61A A84G,-4.25
16,C11G A16G G71U C101A G128U,-3.82
17,C11G U32A G48U U96A C123A,-5.24
18,C11G C64U A84U,-0.0856
19,C11U A18U,-1.98
20,C11G C115A,0.0312
21,C11G G23A,-5.25
22,C11G C12G C56A A118G,-0.95
23,C11G C49A C62A,-0.975
24,C11A G77U,-2.4

row,Variant,polymerase ribozyme fitness (log ratio)
1,C11G A37U G60U G77C,-1.22
2,C11G G35A G60C C98U,-1.01
3,C11G U32C A41G G45A A90C U96C C98U U106G A111U,-6.91
4,C11G G35A G69C C98U,-1.46
5,C11U A43G G63A,-5.66
6,C11G C72G A91C,-0.65
7,C11G A27U G36A G58A,-3.1
8,C11A G60U U87C U112C G117A U130C,-5.25
9,C11G G39A G61A,-0.302
10,C11G C70G U116A U129C,-6.8
11,C11G G93U,0.289
12,C11G C76G,-0.0651
13,C11U A27G C86U C115U,-7.32
14,C11G U78C C82U G117A,-0.181
15,C11G C56G G57A U96C G113U,-3.3
16,C11G G58C C97A C104A,-4.9
17,C11G C53G C70U U96G A105C U112G,-7.25
18,C11G C86U,-0.354
19,C11G G39A,0.759
20,C11G G60C,-0.354
21,C11G G60U,0.25
22,C11G G60A,0.811
23,C11A G71C,-2.37
24,C11G U14G C15U A46C C73G C82A,-4.14

row,Variant,polymerase ribozyme fitness (log ratio)
1,C11G U106G,-0.452
2,C11G U21A C72G G110A,-3.29
3,C11A U33G C56G A103G G122A,-6.79
4,C11G C22U G61A A66C,-3.92
5,C11U A37U C49A C123U,0.929
6,C11G U112C,1.9
7,C11G U78C A90C,-0.723
8,C11G C28G C86A C123U,-1.94
9,C11G G52U C62G U116A,-5.35
10,C11G G113U,-2.12
11,C11G G113C,-1.3
12,C11G G19A A37U C85G,-3.64
13,C11G C70A G127C,-2.16
14,C11A U96G G113C U130A,-5.5
15,C11G A37C A46C G63U C123U,-1.9
16,C11G G44C C86G U126A,-2.2
17,C11G A29U G57A G60A C98U,-4.69
18,C11G C49G A90U C124G U129C,-2.5
19,C11G G122U,0.995
20,C11G U78C C102A A118U,-1.3
21,C11A G71U A91G A121U,0.632
22,C11G C12G G48A G120C,0.765
23,C11G C40U,-0.213
24,C11U A18G G45U G52U G61A A111G U130G U132A,-6.3

row,Variant,polymerase ribozyme fitness (log ratio)
1,C11G U96A U112A G122A G128C,-1.26
2,C11G G128A,-1.59
3,C11G C34U C86G A118U,-5.02
4,C11U A41U G63A U78C C88U C114U U131G,-6.29
5,C11A U33G G52U C56U C64G G120C,-6.81
6,C11G C101A,-0.692
7,C11A G61A C80U C98U A100U,-4.96
8,C11G C31A C73U,-4.73
9,C11G A43C C62U U129C U130G,-3.83
10,C11G C89A,-1.26
11,C11G G17C C53U C79U U129G,-3.84
12,C11G G36A G63C,-1.16
13,C11G A111U,-2.19
14,C11G A111G,1.17
15,C11G C40U G69U A74G C79A C115A,-4
16,C11G C64U C98G U106C,-6.08
17,C11A G61U,-1.39
18,C11A G61A,-1.4
19,C11G A16U G47C G60A,-3.03
20,C11A U30C G63U C64U U81A C104G A111U A119G U132C,-6.95
21,C11G C13U U32C A68G,-3.2
22,C11G G93C C97G U106A G120C,-3.9
23,C11G C15A G61A U125G,-0.186
24,C11A U21C U112G,-0.593

row,Variant,polymerase ribozyme fitness (log ratio)
1,C11A G71C U125G G135U,-3.28
2,C11A U38G C56U A90U,-3.35
3,C11G U21A C49U G117C,-4.04
4,C11G C88A C102A,-1.55
5,C11G C64G,-6.21
6,C11G C76A C79U A90U A119C G120U,-0.651
7,C11G C12G C104A U106A,-3.92
8,C11G A41U C56A C72U U92G,-1.47
9,C11G U96A U129G,-2.87
10,C11G C72U,0.401
11,C11G A108C,-4.07
12,C11G A41U G69C U81C,-4.06
13,C11G G17A C72A,-4.27
14,C11G C28A U112A,-1.33
15,C11G G77U,0.134
16,C11G A121G G127U,0.00144
17,C11U A43U C53G G120A,-1.5
18,C11G C12G C49U U55G A91G,-2.61
19,C11U A18C A27U A46U,-7.63
20,C11U A26U G52C G61U,-2.85
21,C11G C15U G25C G69C A111C A118G,-6.31
22,C11U A43C C76U A83U A90G,-3.5
23,C11G A37C C53U,0.228
24,C11G U32A A46U C85A U126G,-5.61

row,Variant,polymerase ribozyme fitness (log ratio)
1,C11A G113C G135U,-4.88
2,C11G C22G C53G C82U,-3.79
3,C11A U92A,-4.36
4,C11A G120A,0.576
5,C11G G51A C53G C124U U131G,-1.71
6,C11U A27U U32G A37U C62A U109A,-5.82
7,C11G C15A A37U C99U A111C U112C,-4.47
8,C11A G69C,-2.03
9,C11G A46G C79U C82U C98U A118U,-0.917
10,C11G G35A C73G U81G U109A,-6.69
11,C11G G19U G36U A41U C53U C56A G93C C114A C124U U130A,-6.06
12,C11U A26U U55C A75G A83C,-3.24
13,C11G A29G C94G,-2.16
14,C11A G113A C114U U133G,-5
15,C11G C97A,-4.05
16,C11G G17A C72A C124U,-3.65
17,C11A U21A A50C,-1.95
18,C11G C15G G71U G93A G128U,-4.47
19,C11G G17A C72U C101U,-2.99
20,C11G C15A A95U U130A,-2.76
21,C11A U54G,-2.05
22,C11U A29G G77U A84U C89A,-6.04
23,C11G U33C G63A C99U A111C,-7.29
